Data on 15 sequences can be found in the DeepSol protein solubility set.

The series can be described thus: soluble on expression in E. coli; label from the status in PepcDB or PDB records.
As for “MGSDKIHHHHHHMARKKNTSDQSRSQAANTPIAGTYEGEYSVIELEADSYTTDGWLISINGVPSSHIVLGQPQALEFEYMRWIATGARAFIDAHQDASKLRITHLGGGACTMARYFADVYPQSRNTVVELDAELARLSREWFDIPRAPRVKIRVDDARMVAESFTPASRDVIIRDVFAGAITPQNFTTVEFFEHCHRGLAPGGLYVANCGDHSDLRGAKSELAGMMEVFEHVAVIADPPMLKGRRYGNIILMGSDTEFFSSNSTEASAITRELLGGGVPAQYKDESWVRKFASGAQARHDGVSTLQMPSDTPQHPAETPEHSNTQP”, the “soluble on expression in E. coli” value was “not soluble”.
For “MATMSRRWNYFTPHYNDEGSIDVLDGKPPYIDLFDPLKQPLFQHLRSMHTEFSTTTADVNTTWEDASSTSSSNKGATIWFNEDAIDKSSRHEIGQSTVTHESEDDRFSFFNAVCTRLNSLQETKNSSETEEHAESPRKEKSSTPYGTDGFAPPPRSTQTNTLKVSNLPKRFESLYKKKRQQVATSDSSGFGSNASDFWSFERYGKSNQGTLERPNRLFTGTNNGFSTLQPKRRGSEAPKMTVELRYENDVPMVAKISANHAQSVTLRYFRHLFGLHYTDNCR” the value was “not soluble”.
Take “MTEYGGGEVYLLDLDSVVDGSALRMISSGGLRGRVLIHSALVDYLYSEAKRGRSAGYAGLAELSRLMDAGVGDVEIVVVEDDARVQPRDEGELKSVLRRYALRVGATLVTSDPVQARAARALGVSVLFTGRSRTGRIRIEE”: the “soluble on expression in E. coli” value was “not soluble”.
“MFNGEKVTLLEMLDAREQRAATQKELLETAPEASLLSATMNIPGEVKNSPTLTAVFLEVIDEVEQQLLDQVPIVNFYRNEKTGPEYYLAVSLAPQELKQRMVKIEETHPYGRLVDLDVLWGNEELKSLHRGDLGLPPRRCFICQEVAKVCGRNRRHSLEAMQEKITEIILTRKEQPSE”: the “soluble on expression in E. coli” value is “not soluble”.
Regarding “MTETIKCIGCGVEIQTEDKNEVGYAPASSLEKEQVICQRCFRLKHYNEIQDVSLTDDDFLRILNGIGKSDALVVKIVDIFDFNGSWLPGLHRFVGNNKVLLVGNKADLIPKSVKHDKVKHWMRYSAKQLGLKPEDVFLISAAKGQGIAELADAIEYYRGGKDVYVVGCTNVGKSTFINRMIKEFSDETENVITTSHFPGTTLDLIDIPLDEESSLYDTPGIINHHQMAHYVGKQSLKLITPTKEIKPMVFQLNEEQTLFFSGLARFDYVSGGRRAFTCHFSNRLTIHRTKLEKADELYKNHAGDLLSPPTPEELENMPELVKYEFNIREPKTDVVFSGLGWVTVNEPGAKIVAHVPKGVSVSLRKSLILEHHHHHH”, the “soluble on expression in E. coli” value is “not soluble”.
For “MLTREDIFKHVKEKYGTSPDYPWEKYPNYASLRHTSNKKWYGLIMNVLPEKLGLDGHGEIDILNLKCPPEISDRLRNGENILPGYHMDKEHWISIVLERTDPEGEIYNLIEQSFHLTKLEHHHHHH” the value was “soluble”; for “MGSDKIHHHHHHMDTQAFKRSLHHSERYNRRGFGRANEVASNLEKAYQSSLIGSIRDNGYVLQHGRLQVKLAEAFGFCWGVERAVAMAYETRRHYPSERIWITNEIIHNPSVNEHLREMDVLFIHAEGGVKDFSCVNDGDVVILPAFGATVQEMELLHERGCHIIDTTCPWVSKVWHTVEKHKKQEFTSIIHGKVKHEETLATSSFAGTYLVVLDLDEAQLVADYILGQGDRAAFMKRFAKACSANFDPDQDLQRLGVANQTTMLKSETEEIGRLFERTMLRKYGPIELNKHFLSFNTICDATEERQQAMFSLVDEPLDLLVVIGGFNSSNTTHLQEIAISRGIRSFHIDTPERIGDNNSIQHKPLGEDLFIESNFLPAGSVSVGITSGASTPDRVVEHVIQKLIDLTSG”, “not soluble”.
Consider “AKNECHPERTDGCQHFCLPGQESYTCSCAQGYRLGEDHKQCVPHDQCACGVLTSEKRAPDLQDLPWQVKLTNSEGKDFCGGVIIRENFVLTTAKCSLLHRNITVKTYFNRTSQDPLMIKITHVHVHMRYDADAGENDLSLLELEWPIQCPGAGLPVCTPEKDFAEHLLIPRTRGLLSGWARNGTDLGNSLTTRPVTLVEGEECGQVLNVTVTTRTYCERSSVAAMHWMDGSVVTREHRGSWFLTGVLGSQPVGGQAHMVLVTKVSRYSLWFKQIMNAHHHHHH”, for which the “soluble on expression in E. coli” value is given as “soluble”.
“MSYSWKKILIKPESTVVDALRVIDNEALRIALVVNDEQQLLGVVTDGDIRRGLLNNLPLETPVVDIMSRSPITASVNTAKEQLVKLMESKSILAVPLMEENKVVGLETLHHLFEEKTYHNPVFIMAGGFGTRLRPLTDTCPKPMLKIGNKPILETVIRSFIKAGFVNFYISTHYMPEQIQNHFGDGSELGVKISYVHEDSPLGTGGALGLLPDDLPQDLPLIMMNGDVLTKVDFERLLDFHTENQADATMCVREYDYQIPYGVINGKGNKITSMVEKPIQRFFVNAGIYVVSPSVIQSVPKNHHIDMPTLLEQHMNERDNILMFPIHEYWLDIGRMDDFNRAQADIHTLGLDLEHHHHHH”: the “soluble on expression in E. coli” value is on record as “not soluble”.
With “SLSWLTTHFVVTNRRVMFRHGVLTRSGIDIPLARINSVEFRDRIFERIFRTGTLIIESASQDPLEFYNIPRLREVHALLYHEVFDTLGSDESPS”, the “soluble on expression in E. coli” value was “soluble”.
With “VAERNSLAKTVYAIFVPLREGESQIAAEITPMRSERFGVDVLPGHPALSQIEDLMSDSWQSALGRQTGPFRRIHWAGQLAHAMERDDRYDVIFFDVGPSLGPFNRTVLLGCDAFVTPTATDLFSFHAFGNLARWFDAWVTQYAEIHEGNMAEWKKYSADVEAKTRPLRLGGFDGEGLRYLGYTTLEYVKRRANGQEQLVGAFERFRGRFAAEAERISNSLSKHSNSTLLGHVPHMHSMPATAQDVHAPIMELSSSDRVRGAQINQRNAYAEKINSVAANVYKALFPNE”, the “soluble on expression in E. coli” value was “not soluble”.
The entry for “MCMGIFNRISNMIKAKTNSALDEMENPVELLDQKIRDMEKSFNEGKRSSAQIFGNLKDTEKKMNEAKEESAQYDEKVRLAMSKGNEELAKKALKLKLDSDKKFESLKASYEGQRAKADVLKGKLVELEKELDKTRSYRDEAVARLNNAEASKQINEVIANVQSKSNSINIDDIERSISRKESYAAGLEELKGESLDDEFAKLEELSLDDELNKYRTQNTQEDKTSDSEVDLELEKYKNKLEHHHHHH” is “not soluble”; for “MGSDKIHHHHHHMSRTITIDPVTRIEGHATITIRLNDAGAVADARFHVTEFRGFERICIGRSIWEMPGITARICGICPVSHSISAARAGDAILGVEIPPAAVHLRRIANLASLIQSHALSFFHLSAADLLMGMDEEPSRRNLWGLVAHHPEVARGGIRLRQIGQKIVSDVAGESIHPSWAVPGGVREPLSPEGRDRIAALLPEGLAIVRGALGMLDGIYARHEAEITAYGDFPSLFAGLTASDGGLEHYDGSLRFTDSAGVHVDELSPEHYAQAVTERAEPWSYMTFPYYHPHGDREGGGMFRVGPLARLNICDRAGTPEADRELAAFRQVRGAGGMVTGSFHYHHARLIEILHALERIGMLLDEPDILDRHVRSEAGVNRPAGVGFCEAPRGTLFHDYEVDDDGIVSRVNLLIATGMNNLAINRTIRQVAAEFIRGGEFTEGILNRIEHGVRAYDPCLSCATHAYGRMPLRVMLLGPDGTVLDEAKRGR” it is “not soluble”.
With “MSTHEATLQQPLLRAIDLKKHYPVKKGIFSPERLVKALDGVSFNLERGKTLAVVGESGCGKSTLGRLLTMIETPTGGELYYQGQDLLKHDPHAQKLRRQKIQIVFQNPYGSLNPRKKVGQILEEPLLINTSLSKAQRREKALAMMAKVGLKTEHYDRYPHMFSGGQRQRIAIARGLMLDPDVVIADEPVSALDVSVRAQVLNLMMDLQQDMGLSYVFISHDLSVVEHIADEVMVMYLGRCVEKGTKEQIFNNPRHPYTQALLSATPRLNPDDRRERIKLTGELPSPLNPPPGCAFNARCSRRFGPCTQLQPQLKEYDGQLVACFAVDQDENPQKPLS”, the “soluble on expression in E. coli” value is “not soluble”.
For “MGSDKIHHHHHHMQLRALMYFDELVRTNSMRAAAENLNVAPTAVSRQIENLEYYFGSPLVERSSRGVKLTAAGELLAARAGKTLRELDHVHRLIDDLKGLQRGRVTVYANGATVANLLAPVLAQFSLKYPKLRFEVHITSARQAMEALGAAEADLVVSLFAPKLSGVKVRSRTRISYDVIFPAGHALAAQPEVSLKELAGMPLALPDKSFAARQAFDTLFADAGIELDPVFITSSLEMLKELVLGNAAATLLPALSVAREIRSGQMVAVPLAGKKGIHTQIDLCVAPDRQLSFAASKLADFIERFMREATAG”, the “soluble on expression in E. coli” value was “not soluble”.
